Our source for the Kd values is publication doi:10.1101/321604.

In this assay the target is mUHRF1 C-terminally tagged with GFP- and 6xHis-tag (mouse) (UniProt Q8VDF2). Description: MST.
Chain of UniProt Q8VDF2 (Q8VDF2 whole entry): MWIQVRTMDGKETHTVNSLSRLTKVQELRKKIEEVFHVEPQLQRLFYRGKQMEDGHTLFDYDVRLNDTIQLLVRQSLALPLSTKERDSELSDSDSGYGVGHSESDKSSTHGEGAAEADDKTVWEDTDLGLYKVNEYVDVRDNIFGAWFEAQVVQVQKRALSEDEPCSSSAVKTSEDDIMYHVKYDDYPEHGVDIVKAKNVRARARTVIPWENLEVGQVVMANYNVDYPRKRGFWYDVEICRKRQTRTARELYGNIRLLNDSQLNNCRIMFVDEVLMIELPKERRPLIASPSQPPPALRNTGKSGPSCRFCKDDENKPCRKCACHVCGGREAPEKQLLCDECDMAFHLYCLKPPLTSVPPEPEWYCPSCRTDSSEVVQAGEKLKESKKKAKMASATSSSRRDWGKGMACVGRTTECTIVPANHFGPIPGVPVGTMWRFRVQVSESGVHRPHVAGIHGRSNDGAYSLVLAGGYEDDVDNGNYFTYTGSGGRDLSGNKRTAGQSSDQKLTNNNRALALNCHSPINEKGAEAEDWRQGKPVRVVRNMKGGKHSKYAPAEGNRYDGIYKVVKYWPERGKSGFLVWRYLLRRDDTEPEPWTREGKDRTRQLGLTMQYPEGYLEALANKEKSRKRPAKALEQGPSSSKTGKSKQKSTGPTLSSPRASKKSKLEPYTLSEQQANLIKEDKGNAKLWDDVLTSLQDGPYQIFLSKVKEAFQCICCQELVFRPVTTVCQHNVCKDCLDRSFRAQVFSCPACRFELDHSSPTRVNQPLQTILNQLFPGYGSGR

Broadly, the Kd is the constant that tells how readily two partners part at equilibrium. Read a high Kd as lower affinity. In turn, “GST-mDPPA3 wild-type (from UniProt Q8QZY3 1-150) (natural protein)” yielded a Kd of 440 nM.
